Results on one molecule are retold here after patent publication US20030166537A1, “Use of GDNF for treating corneal defects” (Biopharm Gesellschaft Zur Biotechnologischen Entwicklung …, priority 1999, published 2003).

Test [1] deals with primary rabbit corneal epithelial cells. Description: single cell clonal growth assay (colony formation, clonal proliferation). The test is classed as cell-based. Conditions: D6. From the text:
In order to evaluate the effect of GDNF on corneal proliferation, recombinant human GDNF was used (R&D, Minneapolis, Minn., USA). For the evaluation of the effect on corneal epithelial proliferaton a single cell clonal growth model was utilized which allows to determine the effect of the given growth factor on both colony formation as well as clonal expansion (Kruse et al., 1991). New Zealand white rabbits were housed and treated according to the ARVO Resolution of Animals in Research and under observation of German Federal Laws and the laws of the State of Baden-Württemberg. Prior to sacrifice with an intravenous overdose of pentobarbital, they received an intramuscular injection of xylazine hydrochloride and ketamine hydrochloride. The details of the clonal growth assay are described in Kruse et al. (1991). 5000 viable cells were seeded in each 16 mm dish in serum-free medium MCDB 151 with a supplement (S) of insulin (5 μg/ml), transferrin (5 μg/ml), selenium (5 ng/ml) and hydrocortisone (5 μg/ml) (all from Sigma, Deisenhofen, Germany). […] This quantification was facilitated by the use of dishes which contained a grit on the bottom which is roughly 2 mm wide (from Sarstedt, Newton, N.C., USA). For data collection the entire surface area of four randomly selected dishes for each condition was screened. Furthermore, the number of cells per colony was determined in 75 randomly selected colonies for each condition. Furthermore, the total number of cells/dish was calculated in order to carry out an evaluation for artemin. In order to stimulate the cellular proliferation, GDNF (50 or 200 ng/ml) or artemin (250 ng/ml) was added to the medium. In order to estimate the rate of proliferation after 12 days (a time when neighbouring colonies started to grow into each other and, therefore, prevented numerical quantification) dishes were fixed in −20° C. methanol and stained with methylene blue.
All experiments examining the effect of GDNF on corneal proliferation were performed in triplicate with cells from different donors. The influence of growth factor on colony formation, colony size and cell number was studied using one-way analysis of variance. […] Student's t-test was employed to determine which differences were significant after analysis of variance.

The test system of test [2] is ERK1, ERK2, JNK1 and JNK2. Description: western blot of phosphorylated MAP kinases in cultured human corneal epithelium. The test is classed as cell-based. Conditions: human epithelial cells. As to the method: (§1) In order to evaluate the effect of GDNF and other neurotrophic factors on the activation of signal transduction pathways in cultured corneal epithelial and stromal keratocytes, western blots were performed for detecting an accumulation of phosphorylated MAP kinases ERK and JNK in the presence of GDNF, NGF and BDNF. Human stromal keratocytes were cultured in RPMI 1640 medium containing L-glutamine (glutaMAX) or DMEM with 10% FBS for one day and starved in serum-free medium for another day. Cultures were then washed with PBS and incubated in serum-free DMEM without additives or with recombinant human GDNF (200 ng/ml), recombinant human NGF (200 ng/ml) and recombinant human BDNF (200 ng/ml) (all obtained from R & D Systems, Mineapolis, Minn., USA) for 30 min. Some cultures were incubated with an inhibitor of MAP kinases (PD 98059, Torcris Cookson Ballwin, Mo., USA) at 100 μM for 1 h prior to exposure to neurotrophines. After washing with PBS, culture cells were solubilized in lysis buffer containing 50 mM Tris-Cl (pH 8.0), 150 mM NaCl, 0.02% sodium azide, 100 μg/ml PMSF, 1% Triton X-100 and a mixture of several protein inhibitors (Complete®, Boehringer Mannheim) (one tablet/50 ml buffer). 50 μg total protein per lane was fractionated by a 10% STS-MOPS NUPAGE Bis-tris gel (NOVEX, San Diego, Calif., USA) and blotted onto nitrocellulose membrane. Membranes were stained with diluted polyclonal antibodies against ERK1, ERK2, JNK1 and JNK2 (Santa Cruz Biotechnology, Santa Cruz, Calif., USA). Also a polyclonal antibody was used which recognizes the […] form of either ERK1 and ERK2 which was raised against the catalytic core of the phosphorylated threonine residue 183 and tyrosine residue 185 of mammalian ERK2. Similarily, a polyclonal antibody recognizing the phosphorylated form of JNK1 and JNK2 was used (both from Promega). In the last step the membranes were visualized with the ECL western blot analysis system (Amersham).
Background: A western blot detects proteins with antibodies after separation by electrophoresis.

Test [3] deals with ERK1, ERK2, JNK1 and JNK2. The test is described as follows: western blot of phosphorylated MAP kinases in cultured human corneal stromal keratocytes. The test is classed as cell-based. The protocol:
as §1

The test system of test [4] is corneal ulcer. The test is described as follows: topical therapy of corneal ulcer in a human patient. The test is classed as in vivo. Conditions: one patient. As to the method: […] Corneal ulcer accompanied by massive inflammation on the left. Epithelial defect of 3.8×3.0 mm in size, furthermore ulcus of corneal stroma in form of a punched-out defect comprising 80% of the thickness of the cornea. No pain sensation of the cornea and significant accompanying inflammation of the eye. The patient was treated with recombinant human (rh) GNDF (0.2 mg/ml) (25 μl/dose) in 2 hours intervals for 48 hours, then the doses were reduced to 20 μl 6 times per day. After healing of the epithelium the concentration was reduced to 0.1 mg/ml, and 20 μl doses were given 5 times per day. For adminstration, lyophilized recombinant human GDNF was diluted in sterile balanced salt solution (Alcon, Freiburg Germany).

The mark [5] stands for this setting: rhGDNF 0.2 mg/ml eye drops, topical.

B1: GDNF: recombinant human GDNF having the amino acid sequence of human wild-type GDNF (GenBank L19063, L15306) (protein)
chain: SPDKQMAVLPRRERNRQAAAANPENSRGKGRRGQRGKNRGCVLTAIHLNVTDLGLGYETKEELIFRYCSGSCDAAETTYDKILKNLSRNRRLVSDKVGQACCRPIAFDDDLSFLDDNLVYHILRKHSAKRCGCI
B1: the “numbers of colonies per dish” value in test [1] (GDNF 50 ng (p<0,05) and 200 ng (p<0.0001), serum-free MCDB) is recorded as “increased significantly”. Moreover, the “clonal proliferation (number of cells within each colony)” value in test [1] (GDNF 50 and 200 ng/ml, p<0.01) is given as “significantly stimulated”. Further, the “phosphorylation of ERK1 and ERK2” value in test [2] (200 ng/ml factor vs serum-free control medium) was “induced”. In addition, the “phosphorylation of JNK1/2” value in test [2] (vs control) was “not induced”. The “activated JNK2” value in test [3] is “not induced”. The “phosphorylation of ERK1 and ERK2” value in test [3] (200 ng/ml factor vs control) is reported as “induced ERK1 to a limited extent”. For the same molecule, in test [3] (vs serum-free medium), the “phosphorylation of JNK1” value is “weakly induced”. In addition, in test [4] (setting [5]), the “start of wound healing” value was found to be 2 days and the “time to complete wound healing of the epithelium” value is given as 3 weeks. In test [4] (rhGDNF topical), the “inflammation and subjective afflictions after healing of the epithelium” value was “significant reduction”; the “thickness of the stroma” value is listed as “continuous increase”.
